From patent US20080182978A1, “ANTI-NGF ANTIBODIES AND METHODS USING SAME” (RINAT NEUROSCIENCE CORP, priority 2002, published 2008)
Entries after “also recorded” stand apart in the source; their conditions may differ.

B1: E3: humanized, affinity matured anti-NGF antagonist antibody; variable regions SEQ ID NO:1 and 2; human IgG2a (A330P331 to S330S331), kappa (antibody, V domains shown)
VH: QVQLQESGPGLVKPSETLSLTCTVSGFSLIGYDLNWIRQPPGKGLEWIGIIWGDGTTDYNSAVKSRVTISKDTSKNQFSLKLSSVTAADTAVYYCARGGYWYATSYYFDYWGQGTLVTVS
VL: DIQMTQSPSSLSASVGDRVTITCRASQSISNNLNWYQQKPGKAPKLLIYYTSRFHSGVPSRFSGSGSGTDFTFTISSLQPEDIATYYCQQEHTLPYTFGQGTKLEIKRT
modifications: human IgG2a constant (A330S/P331S) and kappa constant missing

Tests used:
[1] = system: complete Freund's adjuvant (CFA)-induced chronic arthritis; assay: CFA-induced chronic arthritis in rats, vocalization test (Example 7); format: in vivo, rat
Source text: The analgesic effects of anti-NGF antibody, 911 (see Hongo et al., Hybridoma 19(3):215-227 (2000)) in complete Freund's adjuvant (CFA)-induced chronic arthritis in rats were investigated using the vocalization test, in comparison with indomethacine used as reference substance.
Fifty (50) male Lewis rats (LEWIS LEW/Crl Ico) (Charles River Belgium) weighing 150 g to 220 g at the beginning of the experimental phase were included in this study. […]
On day 0 (D0), arthritis was induced in rats by intradermal injection into the tail of 0.05 ml of a Mycobacterium butyricum (Difco, USA) suspension in mineral oil (10 mg/ml). On day 14 (D14), arthritic rats were included in the study according to their ability to vocalize upon gentle flexion of the hindpaw and by their arthritis index, evaluated using an inflammation score for each hind and forepaw (see Kuzuna et al., Chem. Pharm. Bull. (Tokyo) 23:1184-1191 (1975); Pearson et al., Arthritis Rheum. 2:440-459 (1959)). Animals were scored based on the following criteria: Score 0: normal aspect; Score 1: erythema; Score 2: erythema with slight edema; Score 3: strong inflammation without ankylosis; Score 4: ankylosis. […]
Four groups of 10 rats each were included in the study. […] On day 18 (D18), the nociceptive intensity was evaluated by gentle flexion of the hindpaw and the intensity of the level of vocalization was recorded for each animal. […]

[2] = target: macrophage stimulating protein (MSP) (Homo sapiens, UniProt P26927); assay: Mouse E17/18 trigeminal neuron survival assay, MSP; format: cell-based; settings: MSP 600 pM; antibody up to 200 nM; 48 hours
macrophage stimulating protein (MSP), sequence (P26927 19-711, species assumed): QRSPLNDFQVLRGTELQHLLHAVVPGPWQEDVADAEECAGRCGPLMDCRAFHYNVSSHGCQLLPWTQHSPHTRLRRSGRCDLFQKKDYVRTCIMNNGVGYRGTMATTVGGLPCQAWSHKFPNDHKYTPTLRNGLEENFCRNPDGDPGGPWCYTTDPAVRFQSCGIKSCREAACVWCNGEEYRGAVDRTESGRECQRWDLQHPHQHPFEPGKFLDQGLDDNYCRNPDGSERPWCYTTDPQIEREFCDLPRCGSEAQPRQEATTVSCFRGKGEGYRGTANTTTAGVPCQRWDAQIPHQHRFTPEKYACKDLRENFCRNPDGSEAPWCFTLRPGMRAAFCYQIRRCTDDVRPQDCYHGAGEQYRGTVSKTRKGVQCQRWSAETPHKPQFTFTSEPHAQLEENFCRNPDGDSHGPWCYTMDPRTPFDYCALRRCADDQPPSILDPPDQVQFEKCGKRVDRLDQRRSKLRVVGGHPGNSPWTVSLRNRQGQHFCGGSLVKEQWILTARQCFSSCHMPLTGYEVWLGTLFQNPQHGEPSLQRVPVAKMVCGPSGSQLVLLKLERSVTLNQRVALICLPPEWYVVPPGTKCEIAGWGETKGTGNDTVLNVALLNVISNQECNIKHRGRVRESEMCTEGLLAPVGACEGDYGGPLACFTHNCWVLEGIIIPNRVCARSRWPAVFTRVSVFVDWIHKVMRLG
Description: The ability of antibody E3 to specifically block NGF activity was evaluated by measurement of the capacity of the antibody to inhibit survival of mouse E17/18 trigeminal neurons in vitro in the presence of saturating concentrations of NGF, the NGF-related neurotrophin NT3, or the NGF-unrelated neurotrophic factor, macrophage stimulating protein (MSP). The survival of mouse E17/18 trigeminal neurons is a sensitive assay to evaluate the NGF-blocking activity of anti-NGF antagonist antibodies because NGF is required to support survival of these neurons at higher concentrations than the level of NGF required to support survival of E13.5 TG neurons).
The survival assay was conducted as follows: time mated pregnant Swiss Webster female mice were euthanised by CO2 inhalation. The uterine horns were removed and the embryos (at embryonic day 17 or 18) were extracted and decapitated. The trigeminal and nodose ganglia were dissected and cleaned. The ganglia were then trypsinised, mechanically dissociated and plated at a density of 100-300 cells per well in defined, serum-free medium in 4-well plates (Greiner) coated with poly-L-ornithine and laminin.
E17/18 trigeminal neurons were grown either without added neurotrophic factors (negative control) or in the presence of saturating concentrations of human NGF (400 pM and 15 pM) (positive control); NT3 (400 pM); or MSP (600 pM). […]

[3] = system: post-surgical resting pain (paw incision); assay: Post-surgical pain model, cumulative resting pain score; format: in vivo, rat

Molecule	Nociceptive intensity ([1]; 10 mg/kg orally at D18, measured one hour after dosing) [mV]	% variation of nociceptive intensity vs vehicle-treated group ([1]; 10 mg/kg orally at D18, one hour after dosing) [%]	survival of E17/18 trigeminal neurons promoted by MSP [2]	resting pain (cumulative pain score) ([3]; 0.5 mg/kg i.v. two hours after surgery, assessed 24 hours after surgery)	resting pain (cumulative pain score) ([3]; 0.02 to 1 mg/kg i.p. 15 hours pre-incision, 24 hours after surgery, vs saline)
COc1ccc2c(c1)c(CC(=O)O)c(C)n2C(=O)c1ccc(Cl)cc1 [Indomethacin, reference compound]	145.8 ± 29.9	−85	–	–	–
B1	–	–	had no effect; also recorded: did not inhibit	effectively alleviated post-surgical pain; also recorded: reduced resting pain	significantly reduced resting pain
